Legend:
[1] = target: Cynomolgus CD3ε/δ (cynomolgus monkey) (UniProt Q95LI5); test: kinetic binding measurement, method not stated
Human CD3ε/δ (human) = Human CD3ε/δ (human) (UniProt P07766); test: kinetic binding measurement, method not stated
Chain of Human CD3ε/δ (human) (P07766 23-126, stated change not applied, chain 1 of 2): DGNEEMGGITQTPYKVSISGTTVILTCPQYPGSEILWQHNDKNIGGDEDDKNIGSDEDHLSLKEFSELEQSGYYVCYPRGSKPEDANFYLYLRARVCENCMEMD
Chain of Human CD3ε/δ (human) (P04234 22-105, stated change not applied, chain 2 of 2, further chain): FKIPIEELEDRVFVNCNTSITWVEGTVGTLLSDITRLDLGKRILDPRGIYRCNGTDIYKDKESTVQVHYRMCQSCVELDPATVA

Kd [1]: 9.2 nM | koff [1]: 0.005 s⁻¹ | kon [1]: 550000 M⁻¹ s⁻¹ | Kd (Human CD3ε/δ (human)): 9 nM | koff (Human CD3ε/δ (human)): 0.005 s⁻¹ | kon (Human CD3ε/δ (human)): 570000 M⁻¹ s⁻¹
B1: DART-A, sequence-optimized CD123×CD3 bispecific diabody (bispecific antibody)
chain 1: QAVVTQEPSLTVSPGGTVTLTCRSSTGAVTTSNYANWVQQKPGQAPRGLIGGTNKRAPWTPARFSGSLLGGKAALTITGAQAEDEADYYCALWYSNLWVFGGGTKLTVLGGGGSGGGGEVQLVQSGAELKKPGASVKVSCKASGYTFTDYYMKWVRQAPGQGLEWIGDIIPSNGATFYNQKFKGRVTITVDKSTSTAYMELSSLRSEDTAVYYCARSHLLRASWFAYWGQGTLVTVSSGGCGGGEVAALEKEVAALEKEVAALEKEVAALEK
chain 2: DFVMTQSPDSLAVSLGERVTMSCKSSQSLLNSGNQKNYLTWYQQKPGQPPKLLIYWASTRESGVPDRFSGSGSGTDFTLTISSLQAEDVAVYYCQNDYSYPYTFGQGTKLEIKGGGSGGGGEVQLVESGGGLVQPGGSLRLSCAASGFTFSTYAMNWVRQAPGKGLEWVGRIRSKYNNYATYYADSVKDRFTISRDDSKNSLYLQMNSLKTEDTAVYYCVRHGNFGNSYVSWFAYWGQGTLVTVSSGGCGGGKVAALKEKVAALKEKVAALKEKVAALKE

From patent US20220323583A1, “Pharmaceutical Formulations of Bi-Specific Diabodies and Use of the Same” (MacroGenics, Inc., priority 2019, published 2022)
